Experimental findings from the nanobody polyreactivity screen of Harvey et al. (2022) are described below.

This data set in a line: yeast display, Sf9 membrane polyspecificity reagent, FACS + sequencing; frameworks hold sequencing errors. A digest of the protocol:
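A nanobody's polyreactivity label depends on the gate it was sorted from. Yeast display cells were stained with 10% biotinylated, detergent-solubilized Sf9 membrane reagent for 1 hour at 4 °C, enriched on streptavidin microbeads and sorted by FACS. The low and high (top ~1%) gates were set on anti-HA fluorescence for expression and streptavidin fluorescence for reagent binding.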
With “QDQLVESGGGLVQAGGSLRLSCAASGINLSAYAMGWYRQAPGKERELVARISRSGGRTYYADSVKGRFTISRDNAKNTVYLQRNSLKQDDTAVYYCAADYTYGFGLYFGFGYWGQGTKVTVSS”, the “polyreactivity (PSR sort gate)” value is “high polyreactivity”.

As to “QDQLVESGGGLVQAGGSLRLSCAASGITFYRYAMGWYRQAPGKERDLVAAITTSDTSTYYADSVKGRFTISRDNAKNTVYLQMNSLKPEDTAVYYCATDVVNIAPAEYDYWGQGTQVTVSS”, the “polyreactivity (PSR sort gate)” value is “low polyreactivity”.

Consider “QDQLVESGGGLVQAGGSLRLSCAASGITSSMNSMGWYRQAPGKERELVAAISWRGGSTYYADSVKGRFTISRDNAKNTVYLQLNSLKPEDTAVYYCAVRGKFDYWGQGTQVTVSS”, for which the “polyreactivity (PSR sort gate)” value is listed as “high polyreactivity”.

Turning to “QDQLVESGGGLVQAGGSLRLSCAASGLIFDSYAMGWYRQAPGKERELVAAITYTGGSTYYADSVKGRFTISRDNAKNTVYLQMNSLKPEDTAVYYCAADSPGPWRYDYWGQGTQVTVSS”, the “polyreactivity (PSR sort gate)” value is given as “high polyreactivity”.

Take “QDQLVESGGGLVQAGGSLRLSCAASGLIFGYYAMGWYRQAPGKERELVAVISYSGGSTYYADSVKGRYTISRDNAKNTVYFQMNSMKPEDTAVYYCNTYRAYYRHTKEYGYWGQGTLVTVSS”: the “polyreactivity (PSR sort gate)” value is listed as “high polyreactivity”.

As to “QDQLVESGGGLVQAGGSLRLSCAASGLIFYGYVMGWYRQAPGKERELVAGISRNSGSTYYADSVKGRFTISRDNAKNTVYLQMNSLKPEDTAVYYCAALKFEAWAGEDYWGQGTQVTVSS”, the “polyreactivity (PSR sort gate)” value was “low polyreactivity”.

Regarding “QDQLVESGGGLVQAGGSLRLSCAASGLTFAIYAMGCYRPAPGKERELVAGITWNTGRTYYADSVKGRFTISRDNAKNTVYLQMNSLNPEDTAVYYFAGRFVSRSVRGEATKYDYWGQGTQVTVSS”, the “polyreactivity (PSR sort gate)” value is given as “high polyreactivity”.

Regarding “QDQLVESGGGLVQAGGSLRLSCAASGNNFFPYAMGWYRQAPGTEREFVAAINWSGGSTYYADSVKGRFTISRDNAKNTVYLQMNSLKPEDTAVYYCAASSGKWGHGYWGQGTQVTVSS”, the “polyreactivity (PSR sort gate)” value is recorded as “high polyreactivity”.

On to “QDQLVESGGGLVQAGGSLRLSCAASGNTFNRYAKGWYRQAPGQERELVAAITSDGSTNYADSVKGRFTISRDNAKNTVYIQKNSMKPEDTAVYYCAAEHSGYPVAFYITGYGYDYCGQGTQVTVSS”, for which the “polyreactivity (PSR sort gate)” value was “low polyreactivity”.

As for “QDQLVESGGGLVQAGGSLRLSCAASGNTFYVNVMGWYRQPPGKVREFVAAISTRGVSTSYADSVKGRFTISRDIAMNTVYLQMNSLKPEDTAVYYCAASFRRPEPKGTTYGYWGQGTQVTVSS”, the “polyreactivity (PSR sort gate)” value is “high polyreactivity”.

In the case of “QDQLVESGGGLVQAGGSLRLSCAASGNTYLNAMGWYRQAPAKEREMVAAISKGGADTYYADSVKGRFTISRDNAKYTVYLQMNSLKPEDTAVYYCNADYWFRFGSSVDQVTEDYWGQGTQVTVSS”, the “polyreactivity (PSR sort gate)” value is “low polyreactivity”.

Take “QDQLVESGGGLVQAGGSLRLSCAASGPIFLVKTMGCYIQAPGKERELVADITWRGGDTYYADSVKGRFTISRDNAKNTDYLQMNSLKPEDTAVYYCAARGLGYGYERYRLGYWGQGTQVTVSS”: the “polyreactivity (PSR sort gate)” value is listed as “high polyreactivity”.

For the sequence “QDQLVESGGGLVQAGGSLRLSCAASGRIFAPNAMGWYRQAPGKERELVAAITYSGTSTYADSVKGRFTISRDNAKNTVYLQMNSLKPEDTAVYYCAAEGSGVYYHSYDYWGQGTQVTVSS”, the “polyreactivity (PSR sort gate)” value is “low polyreactivity”.

“QDQLVESGGGLVQAGGSLRLSCAASGRIFKSYAMGWYRQAHGKERELVAAISSSGGSTYYADSVKGRFTISRDNAKNTVYLQMNSLKPEDTAVYYCAAYGHYSWSYDYWGQGTQVTVSS”: the “polyreactivity (PSR sort gate)” value is on record as “high polyreactivity”.

As for “QDQLVESGGGLVQAGGSLRLSCAASGRIFKYKAMGRYRQAPGKERELVAAIRRSGGSTYYADSVKGRFTISRDYAKNTVYLQMNSLKPEDTAVYFCNRLYGPGFKSVYGYDYWGQGTQVTVSS”, the “polyreactivity (PSR sort gate)” value is recorded as “high polyreactivity”.

On to “QDQLVESGGGLVQAGGSLRLSCAASGRIFPGNAMGWYIHEPGKERELVADITSGGSTNYADSVNGRFTISRDNAKNSVYLQMNSLKPEDTAVYYCAVGQIYQTSDHRLQYVYWGQGTQVTVSS”, for which the “polyreactivity (PSR sort gate)” value is “low polyreactivity”.
